Km and kcat data for 1 protein are collected here from publication PMC4440519, “Cloning and characterization of farnesyl pyrophosphate synthase from the highly branched isoprenoid producing diatom Rhizosolenia setigera” (Scientific Reports, 2015).

Substrate in series [1]: CC(C)=CCC/C(C)=C/COP(=O)(O)OP(=O)(O)O
Nature of the series: LC/MS quantification of FPP formed. The format is biochemical, Sundstroemia setigera. Conditions: IPP 50 μM constant, 35 mM Tris-HCl pH 7.5, 10 mM MgCl2, 4 mM DTT, 30 °C.

Substrate in series [2]: CC(C)=CCOP(=O)(O)OP(=O)(O)O
The series can be described thus: LC/MS quantification of FPP formed. Conditions: IPP 50 μM constant, 35 mM Tris-HCl pH 7.5, 10 mM MgCl2, 4 mM DTT, 30 °C. The format is biochemical, Sundstroemia setigera.

Substrate in the series “purified protein”: C=C(C)CCO[P@@](=O)(O)OP(=O)(O)O
The series can be described thus: purified protein. Conditions: DMAPP 50 μM constant, 35 mM Tris-HCl pH 7.5, 10 mM MgCl2, 4 mM DTT, 30 °C.

B1: RsFPPS (Sundstroemia setigera) (protein)
chain: VSSLPPIIAGAAIYRLVSSKTLPDLTSAFFELEIPDQISLLSLLFASVFSAVSISGFIAPPGHNDDDDEDEHKPPFQYPLKEIASKTTDKEKFLSVYPCLRDSIAEYFATKHEMVPEGVNWITEMIDYSCVGGKMNRGITVLTVARTLSGSSGLTPREEARASVVGWGIEFLQAFFLVADDLMDDSKTRRGQPCWYLLPKVGTIAVNDSFLLESFVFTFLKEHFGKEPYYIKLVELFLETIQQTECGQLLDLTSQPKDAKTADLSRFTIERYRKIVKYKTAFYSFYLPVASAMLMSGVTNSKSFKTARNICCIMGEYFQIQDDVLDCYGTPEVIGKVGTDIQDNKCSWLIVQALDRATPEQRKVIEENYGKWDDAKVAKIKAIYNEMGLKSVFEKYEEDSYAEIQEELKKINDIPQEVFTLFLDKIYKRSK
notes: kcat calculated for dimer
As for B1, the Km in series [1] worked out at 63.0 ± 7.5 µM; in series [2], 10.6 ± 2.3 µM; in the series “purified protein”, 21.5 ± 6.7 µM. Further, the kcat in series [1] came out at 43.5 ± 2.228 s⁻¹; in series [2], 5.73 ± 0.3038 s⁻¹; in “purified protein”, 6.192 ± 0.5738 s⁻¹.
